Experiments:
[1] = molecular target: the molecule itself; assay: in vitro self-assembly into fibers, seen by TEM and AFM
[2] = molecular target: the molecule itself; assay: in vitro self-assembly, TEM

| Protein | binding result [1] | binding result [2] |
| --- | --- | --- |
| AIPQFSAYRVKAYNSAASSDLRNLKTALESAFADDQTYPPES (42 residues, released from the CBD-intein fusion with DTT; also called PilA19 subunit; PilA19 monomer) [PilA19 peptide (19 amino acid N-terminal truncation of G. sulfurreducens PilA)] | binds |  |
| CIPQFSAYRVKAYNSAASSDLRNLKTALESAFADDQTYPPES (42 residues; The N-terminal alanine of PilA19, position 20 of full-length mature PilA, is replaced by cysteine; also called cysteine-modified subunit; PilA19-A20C monomer) [PilA19-A20C cysteine-modified recombinant pilin] |  | binds |
